One data set addresses BSU DNA polymerase I (Bacillus subtilis, UniProt O34996 O34996:1-880, second Ser after 6xHis tag replaced by Cys (in tag)). As to the kind of experiment: stopped-flow fluorescein quenching; correct dCTP signal rises and mismatch dATP signal falls with NaCl 62.5-375 mM; 10 mM MgSO4. The note with it: label: fluorescein-dT in primer, 5 bases from incorporation site; primer/template with 5' template overhang. The text has this: Theoretically, it was possible to use an enzyme simulation that predicts the feasibility of correct vs. mismatch base discrimination using enzyme-DNA binding kinetics. […] Rapid mixing is generally achieved using a fast delivery and mixing system to minimize the contribution of the diffusion constants to the overall access of the polymerase to the DNA templates. To determine the validity of the theoretical predictions for base discrimination based on DNA binding kinetics, correct (dCTP) and mismatch (dATP) nucleotides were rapidly mixed with BSU polymerase and FAM labeled 19/36 mer in the presence of various NaCl concentrations with a stopped flow instrument. Pre-steady state correct and mismatch nucleotide kinetic responses of polymerase/DNA binding were made by monitoring the extent of induced fluorescence quenching response. Correct and mismatch nucleotide responses were determined from the stopped flow kinetic raw traces (FIG. 23). The traces were normalized and the maximum fluorescence change was determined and subsequently, correlated with the extent of synchronized enzyme-DNA binding. As [NaCl] was increased and the nucleotide concentration was held constant, the fluorescence change for the correct nucleotide (leftmost bar in each pair of bars in FIG. 24B) was increased, while the response for the mismatch (rightmost bar in each pair of bars in FIG. 24B) was decreased. […]

The target in a further data set is KlenTaq polymerase (UniProt P19821 P19821:280-832). The data set can be described thus: stopped-flow observed k1; 600 nM enzyme, 100 uM dGTP, 50 mM NaCl, 2 mM MgCl2, pH 7.5. The conditions noted are these: label: 6-FAM on internal T; hairpin. As for the experimental part: The pre-steady kinetic analysis of Klenow or KlenTaq polymerase for incorporating the cognate nucleotide (dGTP) was monitored following the mixing of 6-carboxyfluorescein (6-FAM) dye label hairpin-DNA template with the enzyme (600 nM) and nucleotide (100 μM) in a reaction buffer containing 50 mM Tris-HCl, pH 7.5, 300 mM NaCl (or 50 mM NaCl in the KlenTaq reaction), 0.5 mM Dithiothreitol and 5 mM MgCl₂ (or 2 mM MgCl₂ in the KlentTaq reaction) in an Applied Photophysics SX20 stopped-flow spectrometer. The 6-FAM hairpin-DNA template was: 5′-[…].[…](6-FAM) CGAG-3′ (SEQ ID NO: 5).
Sequence of KlenTaq polymerase (P19821 280-832, one chain of several): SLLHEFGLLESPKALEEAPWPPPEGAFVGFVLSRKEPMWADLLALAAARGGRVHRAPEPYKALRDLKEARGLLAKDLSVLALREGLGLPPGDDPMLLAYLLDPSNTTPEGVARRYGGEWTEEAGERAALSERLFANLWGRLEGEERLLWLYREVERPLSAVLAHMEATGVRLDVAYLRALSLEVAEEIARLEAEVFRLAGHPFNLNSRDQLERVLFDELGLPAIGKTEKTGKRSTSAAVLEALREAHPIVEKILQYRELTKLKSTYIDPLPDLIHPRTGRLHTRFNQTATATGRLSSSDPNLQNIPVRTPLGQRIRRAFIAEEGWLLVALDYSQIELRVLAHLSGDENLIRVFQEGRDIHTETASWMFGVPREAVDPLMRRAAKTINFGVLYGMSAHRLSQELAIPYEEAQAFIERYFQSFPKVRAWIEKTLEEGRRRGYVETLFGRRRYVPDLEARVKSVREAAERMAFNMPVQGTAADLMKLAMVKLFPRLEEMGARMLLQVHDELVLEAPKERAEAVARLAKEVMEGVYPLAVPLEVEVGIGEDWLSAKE

B1: 19/36 mer primer/template duplex (FAM-labelled) (dsDNA)
DNA 1: GCTTGCACAGGGCCTCGAC
DNA 2: CGTTAGTAAGGTCGAGGCCCTGTGCAAGC
Consider B1, for which, in the data set with BSU DNA polymerase I, the binding result is “binds”. Take CGTTAGTAACCTCGAGGCAACTTAGCCTCGAG (structured_DNA) [6-FAM hairpin-DNA template]: in the data set with KlenTaq polymerase, the binding result was “binds”.

(Values after patent US20130165328, “APPARATUS AND METHODS FOR KINETIC ANALYSIS AND DETERMINATION OF NUCLEIC ACID SEQUENCES” (ILLUMINA, INC., published 2013).)
